B1: VEGF-D (ligand, UniProt O43915 89-205, looked up)
chain: FAATFYDIETLKVIDEEWQRTQCSPRETCVEVASELGKSTNTFFKPPCVNVFRCGGCCNEESLICMNTSTSYISKQLFEISVPLTSVPELVPVKVANHTGCKCLPTAPRHPYSIIRR
notes: Bought reagent
B3: VEGF-C (ligand, UniProt P49767 112-227, looked up)
chain: AHYNTEILKSIDNEWRKTQCMPREVCIDVGKEFGVATNTFFKPPCVSVYRCGGCCNSEGLQCMNTSTSYLSKTLFEITVPLSQGPKPVTISFANHTSCRCMSKLDVYRQVHSIIRR
notes: Bought reagent
B4: VEGFR2-Fc (Met1-Glu764) (Fc fusion)
chain: ASVGLPSVSLDLPRLSIQKDILTIKANTTLQITCRGQRDLDWLWPNNQSGSEQRVEVTECSDGLFCKTLTIPKVIGNDTGAYKCFYRETDLASVIYVYVQDYRSPFIASVSDQHGVVYITENKNKTVVIPCLGSISNLNVSLCARYPEKRFVPDGNRISWDSKKGFTIPSYMISYAGMVFCEAKINDESYQSIMYIVVVVGYRIYDVVLSPSHGIELSVGEKLVLNCTARTELNVGIDFNWEYPSSKHQHKKLVNRDLKTQSGSEMKKFLSTLTIDGVTRSDQGLYTCAASSGLMTKKNSTFVRVHEKPFVAFGSGMESLVEATVGERVRIPAKYLGYPPPEIKWYKNGIPLESNHTIKAGHVLTIMEVSERDTGNYTVILTNPISKEKQSHVVSLVVYVPPQIGEKSLISPVDSYQYGTTQTLTCTVYAIPPPHHIHWYWQLEEECANEPSQAVSVTNPYPCEEWRSVEDFQGGNKIEVNKNQFALIEGKNKTVSTLVIQAANVSALYKCEAVNKVGRGERVISFHVTRGPEITLQPDMQPTEQESVSLWCTADRSTFENLTWYKLGPQPLPIHVGELPTPVCKNLDTLWKLNATMFSNSTNDILIMELKNASLQDQGDYVCLAQDRKTKKRHCVVRQLTVLERVAPTITGNLENQTTSIGESIEVSCTASGNPPPQIMWFKDNETLVEDSGIVLKDGNRNLTIRRVRKEDEGLYTCQACSVLGCAKVEAFFIIEGAQEKTNLE
notes: also called VEGFR2-Fc with the full extracellular domain; Full VEGFR2 extracellular domain; not shown: Fc part

Assay [1] has as its target B4. The assay can be described thus: SPR Biacore T200 (Example 8).
The target in assay [2] is B4. The assay can be described thus: SPR, PDGF coupled to CM5 chip, VEGFR2-Fc in flow; row label printed PDGF-BR. An excerpt: Nevertheless, it was found in the preliminary detection experiments that PDGF family molecules (purchased from R&D Systems Inc.) were prone to produce non-specific binding in the chip, resulting in a pseudo-elevation in measured values, such that the detection could not be completed. Therefore, PDGF-AA, PDGF-AB, PDGF-BB and PDGF-CC molecules were separately loaded through a coupling reaction on a CM5 chip, followed by influx of the recombinant receptor molecules, thus effectively eliminating the impact of non-specific binding on affinity determination.
For orientation: In SPR one partner is held on a chip, and binding of the other changes the refractive index at the surface.

In assay [3] the target is B1. Description: blocking ELISA: His-VEGF-D premixed with sample, binding to coated VEGFR2-Fc read with anti-His-HRP. On the procedure:
(§1) During the blocking period, each recombinant receptor molecule was serially diluted from high to low concentrations, mixed evenly with 100 ng/well of VEGF-C or VEGF-D (both labeled with His-tag), allowing for incubation at room temperature for 30 minutes. […] The plates were washed with PBST, then anti-polyhistidine secondary antibody conjugated with horseradish peroxidase was added to allow for incubation and binding at room temperature for 1 hour. Then the plates were washed with PBST, TMB was added for color development, terminated with 5% hydrochloric acid solution, and finally, the OD values at 450 nm were read using a microplate reader.
(In general: An ELISA detects its analyte on a solid surface through an enzyme-linked reagent.)

The target in assay [4] is B1. Description: blocking ELISA: His-VEGF-D premixed with sample, binding to coated VEGFR3-Fc read with anti-His-HRP. Here is the method:
(§2) During the blocking period, each recombinant receptor molecule was serially diluted from high to low concentrations, mixed evenly with 10 ng/well of VEGF-C or 500 ng/well of VEGF-D (both labeled with His-tag), allowing for incubation at room temperature for 30 minutes. […] The plates were washed with PBST, then TMB was added for color development, terminated with 5% hydrochloric acid solution, and finally, the OD values at 450 nm were read using a microplate reader.

Assay [5] has as its target B1. The assay can be described thus: blocking ELISA: His-VEGF-D premixed with sample, binding to coated VEGFR2-Fc read with anti-His-HRP. Here is the method: as §1
This is another data set of the same source.

Assay [6] has as its target B1. The assay can be described thus: blocking ELISA: His-VEGF-D premixed with sample, binding to coated VEGFR3-Fc read with anti-His-HRP. Here is the method: as §2
The source holds these as a separate data set.

In the assay “VEGF-C” the target is B3. Description: ELISA binding to VEGF-C, absorbance 450 nm.
Protocol: VEGF-A165, VEGF-C and VEGF-D polypeptide molecules were purchased from ACROBiosystems Inc. VEGF molecules at 100-300 ng/well prepared in PBS were used for coating overnight at 4° C., the next day, the plates were washed with PBS, and 1% BSA solution was added to block for 2 hours at room temperature, after which the plates were washed again with PBS. […] Goat anti-human Fc secondary antibody conjugated with horseradish peroxidase diluted in PBT was added, followed by incubation at room temperature and 300 rpm for 1 hour, after that, the plates were washed three times with PBST solution. Then TMB was added for color development, terminated with 5% hydrochloric acid solution, and finally, the OD values at 450 nm were read using a microplate reader.

As a reminder, the Kd is the constant that tells how readily two partners part at equilibrium. Read a high Kd as a looser complex. In general, koff refers to the first-order rate constant of dissociation. Lower therefore signals slow dissociation. One may read the kon as a measure of how fast the partners come together. Low readings indicate slow association, high ones fast association. What is called EC50 is the concentration needed to bring the measured effect to its halfway point. A lower EC50 goes with an effect from little substance.

Turning to B1, in the assay with VEGFR2-Fc (Met1-Glu764) [1], the equilibrium dissociation constant (Kd) was found to be 21 nM, the koff is 0.000673 s⁻¹ and the kon amounted to 32100 M⁻¹ s⁻¹.

B2: PDGF-BB (ligand, UniProt P01127 82-190, looked up)
chain: SLGSLTIAEPAMIAECKTRTEVFEISRRLIDRTNANFLVWPPCVEVQRCSGCCNNRNVQCRPTQVQLRPVQVRKIEIVRKKPIFKKATVTLEDHLACKCETVAAARPVT
notes: Bought reagent
Regarding B2, in the assay with VEGFR2-Fc (Met1-Glu764) [2], the Kd came out at 14.1 nM.
In the assay with VEGFR2-Fc (Met1-Glu764) [1], B3 gave a Kd of 16.7 nM, a koff of 0.000452 s⁻¹ and an association rate constant (kon) of 27100 M⁻¹ s⁻¹.
In the case of B4, the concentration for a half-maximal effect (EC50) with VEGF-D [3] was 31.5 nM; in the assay with VEGF-D [4], 33.4 nM; with VEGF-D [5] it was 31.5 nM; with VEGF-D [6], 33.4 nM; in the assay with VEGF-C, 269 nM.

The values are drawn from US20250002557A1 (SUZHOU LIGHT FERRY BIOMED, published 2025).
